IntAct's records for PubMed 17928861

B1: DOA4-independent degradation protein 4 (Saccharomyces cerevisiae), P36108 (parent)
chain: MSLFEWVFGKNVTPQERLKKNQRALERTQRELEREKRKLELQDKKLVSEIKKSAKNGQVAAAKVQAKDLVRTRNYIQKFDNMKAQLQAISLRIQAVRSSDQMTRSMSEATGLLAGMNRTMNLPQLQRISMEFEKQSDLMGQRQEFMDEAIDNVMGDEVDEDEEADEIVNKVLDEIGVDLNSQLQSTPQNLVSNAPIAETAMGIPEPIGAGSEFHGNPDDDLQARLNTLKKQT
partner: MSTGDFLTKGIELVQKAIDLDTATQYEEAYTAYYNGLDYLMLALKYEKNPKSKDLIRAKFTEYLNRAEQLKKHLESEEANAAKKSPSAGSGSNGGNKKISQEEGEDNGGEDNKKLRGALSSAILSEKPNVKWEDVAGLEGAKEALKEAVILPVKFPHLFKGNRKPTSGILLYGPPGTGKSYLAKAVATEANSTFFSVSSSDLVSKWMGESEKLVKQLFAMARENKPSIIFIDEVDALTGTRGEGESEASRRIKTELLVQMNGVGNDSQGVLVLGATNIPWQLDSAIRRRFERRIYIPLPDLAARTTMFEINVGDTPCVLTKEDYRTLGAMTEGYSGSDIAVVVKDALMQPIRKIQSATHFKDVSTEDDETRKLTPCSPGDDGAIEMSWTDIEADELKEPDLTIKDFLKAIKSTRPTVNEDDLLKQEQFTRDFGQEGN

Variants of: B1
Conditions: with vps4_yeast VPS4, P52917

Effect of a mutation on the interaction, disrupting interaction strength:
MSLFEWVFGKNVTPQERLKKNQRALERTQRELEREKRKLELQDKKLVSEIKKSAKNGQVAAAKVQAKDLVRTRNYIQKFDNMKAQLQAISLRIQAVRSSDQMTRSMSEATGLLAGMNRTMNLPQLQRISMEFEKQSDLMGQRQEFMDEAIDNVMGDEVDEDEEADEIVNKVLDEIGVDLNSQLQSTPQNLVSNAPIAETAMGIPEPIGAGSEFHGNPDDDLQARLNTLDKQT [K229D]
MSLFEWVFGKNVTPQERLKKNQRALERTQRELEREKRKLELQDKKLVSEIKKSAKNGQVAAAKVQAKDLVRTRNYIQKFDNMKAQLQAISLRIQAVRSSDQMTRSMSEATGLLAGMNRTMNLPQLQRISMEFEKQSDLMGQRQEFMDEAIDNVMGDEVDEDEEADEIVNKVLDEIGVDLNSQLQSTPQNLVSNAPIAETAMGIPEPIGAGSEFHGNPDDDDQARLNTLKKQT [L221D]
MSLFEWVFGKNVTPQERLKKNQRALERTQRELEREKRKLELQDKKLVSEIKKSAKNGQVAAAKVQAKDLVRTRNYIQKFDNMKAQLQAISLRIQAVRSSDQMTRSMSEATGLLAGMNRTMNLPQLQRISMEFEKQSDLMGQRQEFMDEAIDNVMGDEVDEDEEADEIVNKVLDEIGVDLNSQLQSTPQNLVSNAPIAETAMGIPEPIGAGSEFHGNPDDDLQADLNTLKKQT [R224D]
MSLFEWVFGKNVTPQERLKKNQRALERTQRELEREKRKLELQDKKLVSEIKKSAKNGQVAAAKVQAKDLVRTRNYIQKFDNMKAQLQAISLRIQAVRSSDQMTRSMSEATGLLAGMNRTMNLPQLQRISMEFEKQSDLMGQRQEFMDEAIDNVMGDEVDEDEEADEIVNKVLDEIGVDLNSQLQSTPQNLVSNAPIAETAMGIPEPIGAGSEFHGNPDDDLQARLNTDKKQT [L228D]
MSLFEWVFGKNVTPQERLKKNQRALERTQRELEREKRKLELQDKKLVSEIKKSAKNGQVAAAKVQAKDLVRTRNYIQKFDNMKAQLQAISLRIQAVRSSDQMTRSMSEATGLLAGMNRTMNLPQLQRISMEFEKQSDLMGQRQEFMDEAIDNVMGDEVDEDEEADEIVNKVLDEIGVDLNSQLQSTPQNLVSNAPIAETAMGIPEPIGAGSEFHGNPDDDLQARDNTLKKQT [L225D]
